Experiment: protease stability score; higher = more stable; yeast display proteolysis, trypsin and chymotrypsin;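 also: relative to predicted unfolded state with 0 unfolded-like and 1 meaning tenfold more protease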

| Sequence | protease stability score |
| --- | --- |
| DHMERLLKHVARLFIHALHTGDESILTDLLDPNVRVHIHIGDKEIRLHGREHVRHYLEHELTHWRTEFHLTHFDIVGNKFENHTNVIIRIDGVEIRLDRRHEVVLYDGKIEEVIVRVE | 2.37 |
| DHNKEAADHILHLLRQSWRTGDEEIFQRLIDPNVKLQVGDKQFHGREEVTRWIQLYLLRFKGITIHDIEVKEVRTYDGRVEAREIHHNHVNGQDHSLDVHLYIVKVNGQWRLESMHVN | 1.77 |
| DHNKELWERIAEWLIRLQETGNEEELMKNMDPHTRLLVNGVTAHGRDTVTHYYREFLKELGVDVLELKRVHVQGEKVENDGQLHYNGKTHHSRINFFVINGRIHHIELHFE | 0.745 |
| DHQEEEAKEFTELLMRNLFTGDEDSLQEMLDPHVRIEVDIGDKHRHHHGREEISHFLVRLQHELGVDHIRLSHIEVFNGRAEVHIESYIGNKRSENVFVVTKFNGVWRVQRIIIRVE | 1.2 |
| DHQEESRSKFLNDILRIQRTGDFEKIYENVDPDVRIHIGDKEWHGREQATKVLTEWRVEHFDLKSMHIQGDKVHIHGHMIYNINGQERRSDIEIVLLKFNGRWFIHSMRID | 1.67 |
| DHQEHIIKVSLEILLESARTGDERSLERLFDPNVRIINENEERHGREALEILLKRIDHIHHLNIRDTRIQGDFLITEVHVRINVNGVHIQNDMVLYAWKVNGRWHIRSIEFK | 1.39 |
| DHQEKRTTEANEMFREAIETGDEKTLTRLVDPNVKIIVGDKRYHGREWFLHLMLHEILHLRVRIHTEDYRVVDGRIEFITHLEIEIGDKTVRRETFVFVDKINGRWLYQSFQDG | 0.773 |
| DHQERHLREFAHEVEEAWHTGDWKDMFRLFDPNTRVDFHFENHDLHLHGRESMVRFIRDFLDKFKNIRLQLTSRDRQGDKVHLTEEFHINGRIMVIHVNFDIVNGKWKRLELDFIDT | 1.25 |
| DHQRDLLKEARERLLHSIETGDEELWRRLFDPETLLIAENHSSHGREARHDWKKRFDVIDHLEIRTRDVDMIGDKIYVEGKLDYITKYDGVTRNYTNTVHFIATKINGRWVIESVRFE | 1.09 |
| DHRDEVFEELVRLIIHFLETGDWKSLEELADPNVRVTVFYNGRQDNNIGRKQWAEAWERLLHLLGIKHHHMHRYHIQGDKIHIIMNFVVNGQEFTVHIDITVFNGRMKSSRIHVE | 1.27 |
| DHRDRYAEEVAHRLLKLRHTGDEEIYHEFADPNDRLIIWIGDKSIHSHGRSLVVQVLRRLHEHWRLEDMFIHDEKLVGEKSNMDIHVVGNINGKRMETTEKFTVRVINGRLHTLEIHLD | 0.474 |
| DHREEEQKRLTEEFITALKTGDEERWKELLDPNVKMHINGKDVVGREIAAKDLLDHWKNLGIKHIITHRIELQGEKVRIDTEERFNGRSVKTTMIIIVINGRLESFEFHVH | 0.653 |
| DHREEESKRYLDDYSRAVTTGDEDRLTELLDPNTKLNYNGQEYHGMEKYKEVLHKILTEIRFESHHVETFRVVGNKLQLDTHIKGHINGKHIRLETHVDIVKINGRWLIDSVRFQ | 0.29 |
| DHREEHDHEISELMREALLTGDEQLISHLADPNVRFEVFVGDKVIRWVGRESMMEAFERWVREIRIEDLKVKHVDIFNGRVDVVTTLHVEFDGRKHDLETRLIFEVVDGKVKHLQVHHH | 1.36 |
| DHREELLHRIYELWEMVQTTGDFEKLTDLLDPDVYVNINGRNLIGRELRIRFMREIRMEIKHYKHERFHFQGDKAHIHGRLDREINIGDKHHREDITIDVHLFVIDGVIRSFEIRLI | 1.33 |
| DHREHRSHRIAEWILRNLVTGNEDEISKLLDPDARVIINGQEVIGREEINRMLRHVFNEIRIHDIEIRDLEIQGEFAFVDTRLDGEFDGRRIKQKSELRIVVINGRVRELEIRIH | 1.52 |
| DHREKELEKMARIFIHNLVTGDWRSLEKLADPDAKSEVIIGDKHIEHVGRHEVWKMLFEIRWEQVEVHDIRIYNGRVEIDGHMKGDIDGRRIETDTKIRLTIVNGVVQTFHMEIR | 2.23 |
| DHREKEVHFMAKWIVEIFQTGDEDMWRHLADPDVRLDIVQGEKRDNNVGREVSEKTLKELRHHWGLERVEVRVDHIDHQGDKARVDGTVNINGVHFKTEIVIIVVDGRFKRVKYIIG | 1.39 |

| Sequence | protease stability score |
| --- | --- |
| DHRESLRDDMEELLLEVIHTGDWHNYLKLLDPNARLVVGDKEYMGRERVLHWFKEKLDKIPGAKIELEDKREIGNKVELDFDMHVGDKSLRLHIDLRKVNGRWLIEHIEIR | 1.47 |
| DHTEHDARLVMEIWLRILLTGDWETLEKMLDPHVRLQINIGDKRHTHHGREDFLKRLYDLIRELGVDHWTLDEKRVQGNKTRARVTMYVGDKSYDVEIILVAVNGRIREVTIEIH | 2.08 |
| DHTHEAVEHLWKLLLHAIATGDFRILSHLLDPNVRIIFNGRTLVGRQSLEILLKRFDHEKIEEVRLRSTRIQGNFVDLDTEIIMVLHYDGKEYRIHTETHVHVVKVDGRWLIEELRID | 2.62 |
| DHTKKMAEEALRDFWRDFRTGDEDSLNKMADPNVRILIGDKEVVGRERMVELFREVLKKYKNARVITDIEDLDDQGNWVHSDVRFHLHVGDKTVDIEREIVMRKVNGRWYIETHVVK | 0.397 |
| DHVDEETEKMTNEITKALLTGDEDRLLELADPHVRVIVHVGDKTIHLVGRELMVEEYRRWVKEAGFDKVHHEKKHSDFVDGRAEVHSKVDVGDKHVEYRIIITKVNGKWVIKSIIIIVR | 2.15 |
| DHVEEDARTRLKLFLTHWLTGDEHSTNELFDPNVRIDVNGKIIVGRHVLSEEWSRLGIKHSILHIDHIHIDEDEIHIDGILRLIFENHVLDLRVNLHAEKYDGRWHSSEVQVK | 1.25 |
| DHVEEEAEEFVRNFIHNMRTGNWKYMEELLDPNVRLRYGDKDHHGREEMVKWIEEAFKKFKNLTIEIKHINIIGDKLIFDLHVEFNGKHHQLHLIVTKIDGKWISKSIHVD | 1.47 |
| DHVEEVVRQMVSHILRDYITGDEKSYASLMDPNMRLHIGDKDSIGREEVLRLIREHTRHLGIKHFHLHDVRIRIQGEYVEIKIDVHLEFNGRKFRVIIHLEMHKVNGRWRLHEETIEIE | 2.61 |
| DHVEHEVENVLRKTLHSFLTGDFELLHRLADPHVRSDINGVEIHGWEKLSKWILTLIEQVDHSEFDLKDIRLQGDFVRIHGELILRFNGKHIEIRVQSHVEKIDGRWVIHAVKLK | 1.11 |
| DHVEKEARKFEKLLRHAETTGDEELYLKMIDPNVRIIIGEKNLVGREEVEKWLQTLGVSKVEIRHVEEKDIEIDEDHIRIHGRIIGRYNGKERDFEKHIIVQKIDGKWVLHTEEIR | 0.385 |
| DHWEELIERALDFHRSLLRTGDPEVLERQADPNAKFVVGDKTLHGRESVSDWMNRVKNIQIHMRDLHVIDGKIEMHVQMHYDGRTSHTRLIADKVDGRWIYRSVSVE | 0.69 |
| DHWEHVERMYSHEVLHMLETGDEHKFNKLMDPNARIDVGEWDLIGMHRVSHALKEVRDELGIKHSEVKHVDIFNGRVEIHTEVHVDGRSHKVRIEVIYVNGRTKWMRYEQH | 0.717 |
| DIEERDAEEAVRRWLHFLQTGDEDWLREQLDPNTRIDIDGREIHGMEEVVNVLLRESRHLGVDVLSFELRHVDRQGDKIIVYGRIRLRVNGRDTEIEVILYMVKVNGVWLMKSMEFR | 1.89 |
| DKDDHDFERVLRIFIESIRTGDEDSIRRLADPSVKHVVNGKEFHGREDWEEMIRRIDHIRDFELKSVSIYNGKIEVDGVLTGIFNGREDKTHVHIIMMKVNGRWYIKSWELK | 1.93 |
| DKDEDDERKAIDTLVDVLRTGDEHTLQRLLDPNVQLHIGDKRHHGRDEVIRVLHELHRRLGVTRVEVEIQEYHMVDGQIDLRVHLKYGDKTIESEFVLYKVNGRWFVKSLHFK | 2.24 |
| DKDEEDLRHVLHLLSRAFMTGDEDELTKLMDPDVRIYYGDKRLHGREEVTRWIREIRAWVHDSKIRHIRRQGEKIILHGEMDMIFDQGDKEVRTRTEITIHTTKINGRWLLNELELR | 2.6 |
| DKDEKETKDAIHILLHVARTGDERLLNTLFDPDVKLEVGDKSHHGRETITKVWKDWFHEWRIRDVTYHHVESQGDKIHVDLRIDGIFDGQRTHIESHNVLLKVNGQWLLRREVVH | 0.512 |
| DKDERMRNEAFKITEHLHHTGDWHTRSRLADPEVQLIIGDKEYHGRETASEVLHKYLKRLGVDHLELKHFEVKMFDGQLHIHLHIELHINGVIYEVHIHIVMEKINGRWVIKHERIEFR | 1.01 |
